Measured values: the supplement of paper PMC10065799, “High-throughput profiling of sequence recognition by tyrosine kinases and SH2 domains using bacterial peptide display” (eLife, 2023)

Target: EPHB2 (UniProt P29323)
Test: phosphorylation enrichment, bacterial display (enrichment ratio); higher = better substrate or ligand; peptides without Tyr show the background
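Further: 11-residue human phosphosite peptides and single-mutation variants displayed on the E. coli surface, counted by deep sequencing, each peptide's frequency after selection divided by its frequency in the unselected input library; frequency after pTyr selection over input frequency; kinase dosed for 20-30% of maximal phosphorylation in three min.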

Chain of EPHB2 (P29323 whole entry, looked up): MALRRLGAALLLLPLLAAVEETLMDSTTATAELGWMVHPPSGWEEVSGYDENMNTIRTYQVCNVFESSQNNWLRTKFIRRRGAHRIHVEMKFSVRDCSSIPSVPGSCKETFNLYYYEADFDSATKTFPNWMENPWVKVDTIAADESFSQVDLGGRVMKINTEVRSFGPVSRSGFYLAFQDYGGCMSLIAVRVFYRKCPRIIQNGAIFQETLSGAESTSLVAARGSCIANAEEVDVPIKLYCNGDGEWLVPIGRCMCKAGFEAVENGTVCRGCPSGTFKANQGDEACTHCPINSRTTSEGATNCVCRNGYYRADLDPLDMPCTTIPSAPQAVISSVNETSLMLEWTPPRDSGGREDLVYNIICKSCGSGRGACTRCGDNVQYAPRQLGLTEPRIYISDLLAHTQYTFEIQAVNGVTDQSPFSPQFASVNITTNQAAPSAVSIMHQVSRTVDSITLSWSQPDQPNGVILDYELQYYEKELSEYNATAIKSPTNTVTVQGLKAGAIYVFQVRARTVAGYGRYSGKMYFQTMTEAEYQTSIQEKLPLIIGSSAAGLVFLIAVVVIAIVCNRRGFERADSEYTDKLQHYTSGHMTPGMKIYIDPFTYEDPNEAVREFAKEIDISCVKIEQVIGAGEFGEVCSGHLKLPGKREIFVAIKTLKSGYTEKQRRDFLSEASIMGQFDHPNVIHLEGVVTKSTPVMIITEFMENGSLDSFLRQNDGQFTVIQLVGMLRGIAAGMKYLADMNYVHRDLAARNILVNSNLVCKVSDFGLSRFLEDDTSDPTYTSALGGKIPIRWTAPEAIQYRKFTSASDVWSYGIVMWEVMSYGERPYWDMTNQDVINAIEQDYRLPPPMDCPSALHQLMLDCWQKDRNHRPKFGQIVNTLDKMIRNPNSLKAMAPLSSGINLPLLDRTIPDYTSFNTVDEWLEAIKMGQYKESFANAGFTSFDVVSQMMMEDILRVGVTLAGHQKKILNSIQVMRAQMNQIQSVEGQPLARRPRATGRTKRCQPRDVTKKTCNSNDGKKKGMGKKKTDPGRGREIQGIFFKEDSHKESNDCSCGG

Row | Sequence | phosphorylation enrichment
1 | SSSGAYGGGFG [KRT19_Y61_YF] | 0.378
2 | DFSLKYPTDIP [APC_Y1183_A1184P_YF] | 0.599
3 | VLVSQYEKLDA [AMZ2_Y26_N30D] | 0.606
4 | DIDKIYIRTGI [PIK3CA_Y355_V356I] | 0.543
5 | AKIDGYIISYR | 0.657
6 | RLLRGYDQLAF [HLA-C_Y137_S140L_YF] | 0.479
7 | AKLVQYFMEHH [PTPN11_Y80_E76K_YF] | 0.505
8 | APRKVYDTRDD [ZFPL1_Y215] | 0.44
9 | FGGTVCHSPVS [PRC1_Y511_Y511C] | 0.493
10 | ENKGVYVLMSG [IVD_Y277] | 0.626
11 | KPIETYFSKNY [PLP1_Y50_L46P] | 0.408
12 | LGGAMYFLEAD [PKHD1_Y452_E457D_YF] | 0.701
13 | FGSVDCWEKFF [EEF1AKNMT_Y16_Y16C] | 0.624
14 | RQQQDYWLIDV [ANPEP_Y600] | 4.64
15 | LGRKLYSIAAP [ABHD12_Y345] | 1.04
16 | QWQQLYDTLNA [EIF3M_Y351] | 1.63
17 | RENGPYFTSFP [GDAP2_Y487_YF] | 0.645

Row | Sequence | phosphorylation enrichment
18 | IIQRAYRRHLL [SCN1A_Y1926] | 0.433
19 | TNFSLYLRSLE [MTM1_Y71_R69S_YF] | 0.491
20 | PKKKQYTSIHH [APP_Y728_L723P] | 0.646
21 | LGPSDYFGEIA [PRKAR1A_Y323] | 0.727
22 | RTTKTYFPHFD [HBA1_Y43_P38R] | 0.527
23 | EAVSIYQFFGQ [CBLC_Y402_H405Y_YF] | 5.73
24 | YAGRDYSLDEF [MYOF_Y1705_G1701A] | 0.536
25 | AQESNYRLLRQ [SLC20A2_Y377_R382Q] | 0.534
26 | GLDGSYLPRDS [SH2D1A_Y29_L31P] | 0.4
27 | DFPMGYPSFLA [TBCK_Y153_I151M_YF] | 0.469
28 | FQGGTYSKACT [FGG_Y380_S384C_YF] | 0.366
29 | YPPDGYSRHYE [CTNND1_Y213] | 0.394
30 | QLFGPYLRIHA [BSCL2_Y213_A212P_YF] | 0.548
31 | LRYEVYGGENE [STOX1_Y610] | 0.729
32 | FVSIVCNDSGE [TSC2_Y1650_Y1650C] | 0.646
33 | PGIRMYRVQYN [LRFN1_Y454_Q455R] | 0.586

Target: FGFR3 (UniProt P22607)
Test: as above

Chain of FGFR3 (P22607 whole entry, looked up): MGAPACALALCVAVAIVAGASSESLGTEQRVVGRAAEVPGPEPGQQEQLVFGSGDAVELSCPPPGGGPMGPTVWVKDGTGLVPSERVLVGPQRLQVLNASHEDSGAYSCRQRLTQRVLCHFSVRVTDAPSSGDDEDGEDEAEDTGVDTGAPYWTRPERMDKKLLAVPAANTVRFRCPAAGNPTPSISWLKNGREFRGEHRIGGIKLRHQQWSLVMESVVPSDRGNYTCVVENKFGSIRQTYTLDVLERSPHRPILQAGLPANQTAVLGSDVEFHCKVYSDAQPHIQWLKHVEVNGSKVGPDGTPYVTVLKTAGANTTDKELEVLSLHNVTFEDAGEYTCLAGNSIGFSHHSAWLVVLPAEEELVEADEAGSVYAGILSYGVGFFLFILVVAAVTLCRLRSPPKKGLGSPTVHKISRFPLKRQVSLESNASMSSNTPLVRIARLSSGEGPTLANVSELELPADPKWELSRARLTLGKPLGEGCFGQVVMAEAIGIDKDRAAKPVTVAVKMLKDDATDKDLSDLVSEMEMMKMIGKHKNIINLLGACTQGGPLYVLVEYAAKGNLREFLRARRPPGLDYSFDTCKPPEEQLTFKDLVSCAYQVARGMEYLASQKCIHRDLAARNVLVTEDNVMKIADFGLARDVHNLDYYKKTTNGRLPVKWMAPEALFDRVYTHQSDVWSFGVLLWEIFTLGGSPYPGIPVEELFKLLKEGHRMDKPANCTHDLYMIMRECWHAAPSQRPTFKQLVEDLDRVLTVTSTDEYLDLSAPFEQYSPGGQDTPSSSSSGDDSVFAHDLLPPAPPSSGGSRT

Row | Sequence | phosphorylation enrichment
34 | SSSGAYGGGFG [KRT19_Y61_YF] | 0.464
35 | DFSLKYPTDIP [APC_Y1183_A1184P_YF] | 0.685
36 | VLVSQYEKLDA [AMZ2_Y26_N30D] | 0.589
37 | DIDKIYIRTGI [PIK3CA_Y355_V356I] | 0.673
38 | AKIDGYIISYR | 0.684
39 | RLLRGYDQLAF [HLA-C_Y137_S140L_YF] | 0.639
40 | AKLVQYFMEHH [PTPN11_Y80_E76K_YF] | 0.684
41 | APRKVYDTRDD [ZFPL1_Y215] | 0.581
42 | FGGTVCHSPVS [PRC1_Y511_Y511C] | 0.524
43 | ENKGVYVLMSG [IVD_Y277] | 1.79
44 | KPIETYFSKNY [PLP1_Y50_L46P] | 0.597
45 | LGGAMYFLEAD [PKHD1_Y452_E457D_YF] | 0.77
46 | FGSVDCWEKFF [EEF1AKNMT_Y16_Y16C] | 0.569
47 | RQQQDYWLIDV [ANPEP_Y600] | 17.4
48 | LGRKLYSIAAP [ABHD12_Y345] | 1.12
49 | QWQQLYDTLNA [EIF3M_Y351] | 0.932
50 | RENGPYFTSFP [GDAP2_Y487_YF] | 0.825

Row | Sequence | phosphorylation enrichment
51 | IIQRAYRRHLL [SCN1A_Y1926] | 0.525
52 | TNFSLYLRSLE [MTM1_Y71_R69S_YF] | 0.744
53 | PKKKQYTSIHH [APP_Y728_L723P] | 0.928
54 | LGPSDYFGEIA [PRKAR1A_Y323] | 1.12
55 | RTTKTYFPHFD [HBA1_Y43_P38R] | 1.17
56 | EAVSIYQFFGQ [CBLC_Y402_H405Y_YF] | 2.67
57 | YAGRDYSLDEF [MYOF_Y1705_G1701A] | 0.686
58 | AQESNYRLLRQ [SLC20A2_Y377_R382Q] | 0.445
59 | GLDGSYLPRDS [SH2D1A_Y29_L31P] | 0.446
60 | DFPMGYPSFLA [TBCK_Y153_I151M_YF] | 0.49
61 | FQGGTYSKACT [FGG_Y380_S384C_YF] | 0.439
62 | YPPDGYSRHYE [CTNND1_Y213] | 0.548
63 | QLFGPYLRIHA [BSCL2_Y213_A212P_YF] | 1.03
64 | LRYEVYGGENE [STOX1_Y610] | 0.692
65 | FVSIVCNDSGE [TSC2_Y1650_Y1650C] | 0.921
66 | PGIRMYRVQYN [LRFN1_Y454_Q455R] | 0.713

Target: EPHB1 (UniProt P54762)
Test: as above

Chain of EPHB1 (P54762 whole entry, looked up): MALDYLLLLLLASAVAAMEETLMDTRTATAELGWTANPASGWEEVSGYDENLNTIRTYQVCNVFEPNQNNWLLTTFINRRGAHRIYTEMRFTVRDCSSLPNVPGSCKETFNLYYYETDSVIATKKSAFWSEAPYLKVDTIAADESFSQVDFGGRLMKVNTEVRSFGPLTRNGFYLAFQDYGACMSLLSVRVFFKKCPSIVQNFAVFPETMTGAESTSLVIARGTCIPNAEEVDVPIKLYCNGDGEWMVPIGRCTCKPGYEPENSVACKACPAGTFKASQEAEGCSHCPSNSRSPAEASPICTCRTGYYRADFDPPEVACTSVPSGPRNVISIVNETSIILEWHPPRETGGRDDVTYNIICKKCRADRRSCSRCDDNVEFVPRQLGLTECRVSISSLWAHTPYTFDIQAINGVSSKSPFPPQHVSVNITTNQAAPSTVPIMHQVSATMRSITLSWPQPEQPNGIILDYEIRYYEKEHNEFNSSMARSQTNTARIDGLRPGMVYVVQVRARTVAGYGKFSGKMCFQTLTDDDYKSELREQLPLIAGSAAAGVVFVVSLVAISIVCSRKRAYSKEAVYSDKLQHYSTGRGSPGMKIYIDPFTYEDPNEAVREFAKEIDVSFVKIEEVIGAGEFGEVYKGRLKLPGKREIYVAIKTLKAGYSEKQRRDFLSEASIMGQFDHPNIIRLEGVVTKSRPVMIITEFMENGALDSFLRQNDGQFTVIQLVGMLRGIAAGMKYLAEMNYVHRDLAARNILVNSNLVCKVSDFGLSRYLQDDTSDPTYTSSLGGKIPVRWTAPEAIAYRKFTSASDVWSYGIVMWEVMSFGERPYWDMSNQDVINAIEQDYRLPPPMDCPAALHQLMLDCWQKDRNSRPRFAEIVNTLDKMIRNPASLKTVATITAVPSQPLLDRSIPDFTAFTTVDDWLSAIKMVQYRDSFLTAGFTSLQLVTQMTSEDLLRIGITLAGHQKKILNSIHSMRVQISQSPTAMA

Row | Sequence | phosphorylation enrichment
67 | SSSGAYGGGFG [KRT19_Y61_YF] | 0.383
68 | DFSLKYPTDIP [APC_Y1183_A1184P_YF] | 0.528
69 | VLVSQYEKLDA [AMZ2_Y26_N30D] | 0.561
70 | DIDKIYIRTGI [PIK3CA_Y355_V356I] | 0.585
71 | AKIDGYIISYR | 0.678
72 | RLLRGYDQLAF [HLA-C_Y137_S140L_YF] | 0.464
73 | AKLVQYFMEHH [PTPN11_Y80_E76K_YF] | 0.462
74 | APRKVYDTRDD [ZFPL1_Y215] | 0.45
75 | FGGTVCHSPVS [PRC1_Y511_Y511C] | 0.38
76 | ENKGVYVLMSG [IVD_Y277] | 0.727
77 | KPIETYFSKNY [PLP1_Y50_L46P] | 0.392
78 | LGGAMYFLEAD [PKHD1_Y452_E457D_YF] | 0.535
79 | FGSVDCWEKFF [EEF1AKNMT_Y16_Y16C] | 0.474
80 | RQQQDYWLIDV [ANPEP_Y600] | 8.95
81 | LGRKLYSIAAP [ABHD12_Y345] | 0.664
82 | QWQQLYDTLNA [EIF3M_Y351] | 2.15
83 | RENGPYFTSFP [GDAP2_Y487_YF] | 0.417

Row | Sequence | phosphorylation enrichment
84 | IIQRAYRRHLL [SCN1A_Y1926] | 0.479
85 | TNFSLYLRSLE [MTM1_Y71_R69S_YF] | 0.754
86 | PKKKQYTSIHH [APP_Y728_L723P] | 0.441
87 | LGPSDYFGEIA [PRKAR1A_Y323] | 0.696
88 | RTTKTYFPHFD [HBA1_Y43_P38R] | 1.1
89 | EAVSIYQFFGQ [CBLC_Y402_H405Y_YF] | 11.2
90 | YAGRDYSLDEF [MYOF_Y1705_G1701A] | 0.658
91 | AQESNYRLLRQ [SLC20A2_Y377_R382Q] | 0.785
92 | GLDGSYLPRDS [SH2D1A_Y29_L31P] | 0.44
93 | DFPMGYPSFLA [TBCK_Y153_I151M_YF] | 0.496
94 | FQGGTYSKACT [FGG_Y380_S384C_YF] | 0.404
95 | YPPDGYSRHYE [CTNND1_Y213] | 0.388
96 | QLFGPYLRIHA [BSCL2_Y213_A212P_YF] | 1.13
97 | LRYEVYGGENE [STOX1_Y610] | 0.765
98 | FVSIVCNDSGE [TSC2_Y1650_Y1650C] | 0.644
99 | PGIRMYRVQYN [LRFN1_Y454_Q455R] | 0.744

Target: Jak2 (UniProt O60674)
Test: as above

Chain of Jak2 (O60674 whole entry, looked up): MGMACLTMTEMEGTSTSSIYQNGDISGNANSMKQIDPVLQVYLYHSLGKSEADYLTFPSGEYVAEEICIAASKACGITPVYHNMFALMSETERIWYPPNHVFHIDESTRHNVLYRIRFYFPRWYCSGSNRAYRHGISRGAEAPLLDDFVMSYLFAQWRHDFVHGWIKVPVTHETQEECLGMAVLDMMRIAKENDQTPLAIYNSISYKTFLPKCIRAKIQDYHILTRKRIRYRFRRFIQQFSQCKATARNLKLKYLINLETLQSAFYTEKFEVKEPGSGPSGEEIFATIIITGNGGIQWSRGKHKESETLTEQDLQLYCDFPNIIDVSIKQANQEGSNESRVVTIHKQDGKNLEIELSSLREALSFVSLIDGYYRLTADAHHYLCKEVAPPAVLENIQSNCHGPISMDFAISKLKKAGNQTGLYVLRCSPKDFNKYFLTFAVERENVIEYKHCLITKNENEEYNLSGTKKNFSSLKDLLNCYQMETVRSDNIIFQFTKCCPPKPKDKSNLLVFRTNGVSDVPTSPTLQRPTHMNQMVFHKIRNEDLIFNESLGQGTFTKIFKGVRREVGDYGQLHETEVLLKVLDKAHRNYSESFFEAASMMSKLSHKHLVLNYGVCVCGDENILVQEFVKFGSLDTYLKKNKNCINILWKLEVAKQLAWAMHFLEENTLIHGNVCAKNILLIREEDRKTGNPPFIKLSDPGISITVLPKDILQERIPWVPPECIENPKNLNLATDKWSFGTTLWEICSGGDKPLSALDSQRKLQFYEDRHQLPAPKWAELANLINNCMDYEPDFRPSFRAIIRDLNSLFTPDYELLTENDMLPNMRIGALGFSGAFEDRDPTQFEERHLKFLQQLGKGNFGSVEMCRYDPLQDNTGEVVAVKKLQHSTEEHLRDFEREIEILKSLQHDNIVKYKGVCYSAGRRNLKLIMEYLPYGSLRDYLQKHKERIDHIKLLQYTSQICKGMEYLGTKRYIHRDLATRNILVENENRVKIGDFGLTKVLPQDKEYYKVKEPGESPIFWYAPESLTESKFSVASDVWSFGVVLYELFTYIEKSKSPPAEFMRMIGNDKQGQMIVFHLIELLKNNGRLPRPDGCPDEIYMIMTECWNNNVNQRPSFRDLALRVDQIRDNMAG

Row | Sequence | phosphorylation enrichment
100 | SSSGAYGGGFG [KRT19_Y61_YF] | 0.595
101 | DFSLKYPTDIP [APC_Y1183_A1184P_YF] | 0.943
102 | VLVSQYEKLDA [AMZ2_Y26_N30D] | 0.738
103 | DIDKIYIRTGI [PIK3CA_Y355_V356I] | 1.06
104 | AKIDGYIISYR | 0.966
105 | RLLRGYDQLAF [HLA-C_Y137_S140L_YF] | 1.08
106 | AKLVQYFMEHH [PTPN11_Y80_E76K_YF] | 0.63
107 | APRKVYDTRDD [ZFPL1_Y215] | 0.614
108 | FGGTVCHSPVS [PRC1_Y511_Y511C] | 0.506
109 | ENKGVYVLMSG [IVD_Y277] | 1.23
110 | KPIETYFSKNY [PLP1_Y50_L46P] | 0.534
111 | LGGAMYFLEAD [PKHD1_Y452_E457D_YF] | 1.03
112 | FGSVDCWEKFF [EEF1AKNMT_Y16_Y16C] | 1.04
113 | RQQQDYWLIDV [ANPEP_Y600] | 2.43
114 | LGRKLYSIAAP [ABHD12_Y345] | 2.38
115 | QWQQLYDTLNA [EIF3M_Y351] | 1.06
116 | RENGPYFTSFP [GDAP2_Y487_YF] | 0.991

Row | Sequence | phosphorylation enrichment
117 | IIQRAYRRHLL [SCN1A_Y1926] | 0.491
118 | TNFSLYLRSLE [MTM1_Y71_R69S_YF] | 1.36
119 | PKKKQYTSIHH [APP_Y728_L723P] | 0.85
120 | LGPSDYFGEIA [PRKAR1A_Y323] | 1.08
121 | RTTKTYFPHFD [HBA1_Y43_P38R] | 2.09
122 | EAVSIYQFFGQ [CBLC_Y402_H405Y_YF] | 1.34
123 | YAGRDYSLDEF [MYOF_Y1705_G1701A] | 1.37
124 | AQESNYRLLRQ [SLC20A2_Y377_R382Q] | 0.754
125 | GLDGSYLPRDS [SH2D1A_Y29_L31P] | 0.534
126 | DFPMGYPSFLA [TBCK_Y153_I151M_YF] | 0.691
127 | FQGGTYSKACT [FGG_Y380_S384C_YF] | 0.503
128 | YPPDGYSRHYE [CTNND1_Y213] | 0.534
129 | QLFGPYLRIHA [BSCL2_Y213_A212P_YF] | 1.35
130 | LRYEVYGGENE [STOX1_Y610] | 1.09
131 | FVSIVCNDSGE [TSC2_Y1650_Y1650C] | 1.18
132 | PGIRMYRVQYN [LRFN1_Y454_Q455R] | 0.626
